Results reported in CN111732659A.

What was measured:
[1] = biological target: GPC3ΔGPI-FLAG重组蛋白 (Homo sapiens (Human)) (UniProt P51654); assay: ELISA on coated GPC3ΔGPI-FLAG after serum incubation of the antibody
[2] = biological target: mCherry-GPC3 (stably expressed on HEK293T cells) (UniProt P51654); assay: immunofluorescence colocalisation on HEK293T cells expressing mCherry-GPC3, confocal microscopy

Molecule: HN3-hFc融合抗体 (Fc fusion)
- decrease of antigen binding (ELISA OD450) after 72 h at 37°C in FBS against 0 h [1]: 55.5%

B1: 纳米抗体G64 (G64-His) (VHH, not shown: small tags and cut ends)
VHH: QVQLVESGGALVQPGGSLRLSCAASGRGADTLSLRWYRQAPGKEREWVCGISWLMTTYSYEDSVKGRFTCSRDDARNTVYLQLNSLKPEDTAVYYCASRPRFLEEQLQVSSYWGQGTQVTVSS
- decrease of antigen binding (ELISA OD450) after 72 h at 37°C in FBS against 0 h [1]: 0.6%
- 皮尔森相关系数 (mCherry and Alexa Fluor 488 signals) [2]: 0.803
